According to PMC10154233, “Structure, sequon recognition and mechanism of tryptophan C-mannosyltransferase” (Nature Chemical Biology, 2023):
Square brackets hold non-standard residues; d marks the D form. Pra = C#CC[C@H](N)C(=O)O

T1: C. elegans DPY19 (CeDPY19), tryptophan C-mannosyltransferase, with a C-terminal FLAG3 tag (C. elegans, UniProt P34413 1-683)
T1 construct: C. elegans DPY19 (CeDPY19), synthetic gene construct; Eluted from the FLAG gel with FLAG peptide; no cleavage of the tag is described; also called CMT
T1 sequence: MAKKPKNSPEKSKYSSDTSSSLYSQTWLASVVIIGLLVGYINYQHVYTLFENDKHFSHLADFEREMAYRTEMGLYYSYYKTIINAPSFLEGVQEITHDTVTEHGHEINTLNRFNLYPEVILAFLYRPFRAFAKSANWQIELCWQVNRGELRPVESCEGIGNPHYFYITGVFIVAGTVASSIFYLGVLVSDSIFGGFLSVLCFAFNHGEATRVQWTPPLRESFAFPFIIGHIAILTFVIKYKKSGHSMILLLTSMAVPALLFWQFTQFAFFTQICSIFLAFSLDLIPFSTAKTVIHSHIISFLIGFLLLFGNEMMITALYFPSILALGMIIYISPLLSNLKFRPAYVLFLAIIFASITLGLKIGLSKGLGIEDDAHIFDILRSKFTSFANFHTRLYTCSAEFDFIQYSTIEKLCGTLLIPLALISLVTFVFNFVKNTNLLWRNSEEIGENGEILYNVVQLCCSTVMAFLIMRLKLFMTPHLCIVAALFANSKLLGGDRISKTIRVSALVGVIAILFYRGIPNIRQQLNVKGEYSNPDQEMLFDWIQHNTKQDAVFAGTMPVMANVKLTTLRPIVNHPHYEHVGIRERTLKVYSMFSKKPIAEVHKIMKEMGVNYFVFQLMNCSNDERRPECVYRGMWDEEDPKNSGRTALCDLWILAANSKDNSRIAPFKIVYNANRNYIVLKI

B1: CMT2-Fab, synthetic Fab selected by phage display against CeDPY19 (Fab, V domains shown)
VH: EVQLVESGGGLVQPGGSLRLSCAASGFNISSSSIHWVRQAPGKGLEWVASISSSYGYTSYADSVKGRFTISADTSKNTAYLQMNSLRAEDTAVYYCARSSSVYWSWWGYSAFDYWGQGTLVTVSS
VL: DIQMTQSPSSLSASVGDRVTITCRASQSVSSAVAWYQQKPGKAPKLLIYSASSLYSGVPSRFSGSRSGTDFTLTISSLQPEDFATYYCQQGASEPITFGQGTKVEIK
notes: source: E. coli C43 (Pro+), purified (Protein L, Resource S)
B2: Synthetic acceptor octapeptide WEHI-1886493 (Ac-Pra-GSWAKWS-NH2) (peptide)
peptide: Ac-[Pra]GSWAKWS-NH2
SMILES: C#CC[C@H](NC(C)=O)C(=O)NCC(=O)N[C@@H](CO)C(=O)N[C@@H](Cc1c[nH]c2ccccc12)C(=O)N[C@@H](C)C(=O)N[C@@H](CCCCN)C(=O)N[C@@H](Cc1c[nH]c2ccccc12)C(=O)N[C@@H](CO)C(N)=O
notes: Eight residues in all: Pra (propargylglycine) followed by GSWAKWS; also called acceptor peptide; source: synthetic peptide

Legend:
[1] = biological target: T2, Biotinylated C. elegans DPY19 (CeDPY19) with a C-terminal Avitag (Caenorhabditis elegans (strain not …, UniProt P34413, biotin (enzymatic, BirA) on the Avitag)); assay: ELISA; multipoint protein ELISA; 30 nM biotinylated CeDPY19 immobilised on a neutravidin-coated plate, threefold serial dilutions of purified Fab from 4 uM, 20 min, 4 °C; 20 mM HEPES pH 7.4, 150 mM NaCl, 0.01% LMNG, 0.001% CHS, 0.5% BSA; detected with HRP-protein L; conditions: both partners purified
T2 construct: C. elegans DPY19 (CeDPY19); also called biotinylated CeDPY19; target; not shown: Avitag, C-terminal, kept

[2] = biological target: T1, C. elegans DPY19 (CeDPY19), tryptophan …; assay: cryo-EM structure; CeDPY19-CMT2-Fab-anti-Fab Nb complex (35 uM) with 1 mM acceptor peptide WEHI-1886493, 1-2 h on ice; conditions: both partners purified

Binder	EC50 [1]	binding result [2]
B1	17 nM	
B2		binds
